Bridge positions count the residues as written; N and C are the ends. Square brackets hold non-standard residues; d marks the D form. Peptide text beside a SMILES is read from it. * marks the point of attachment. X1 = O=C(O)CN1CCN(CC(=O)O)CCN(CC(=O)NCCN2C(=O)CC(*)C2=O)CCN(CC(=O)O)CC1; Ahx = NCCCCCC(=O)O
Key:
in vivo = experiment: in vivo; parameters: species or system Sprague-Dawley rats; settings: Sprague-Dawley, rat, iv, total radioactivity
Protocol: Given this encouraging in vitro result, the tissue distribution of both conjugates in normal Sprague-Dawley rats was examined. […] The radiolabeled compounds were diluted with saline and be injected into rats (n=4 at each time point) via the tail vein. The animal number at each time point was chosen for statistical analysis. […] At the selected post-injection time points, animals were sacrificed, and organs of interest removed, weighed, and counted. The percent injected dose per gram (% ID/g) and percent injected dose per organ (% ID/organ) was calculated by comparison to a weighed, counted standard. Pharmacokinetic parameters were estimated by using either one- or two-compartment model.

GLP-1R in pancreas = target: T1, GLP-1R in pancreas (Mus musculus, UniProt O35659); experiment: Dynamic PET/CT imaging of ^64Cu-labeled peptides in normal mice; settings: mouse, in vivo
T1 sequence (O35659 22-463): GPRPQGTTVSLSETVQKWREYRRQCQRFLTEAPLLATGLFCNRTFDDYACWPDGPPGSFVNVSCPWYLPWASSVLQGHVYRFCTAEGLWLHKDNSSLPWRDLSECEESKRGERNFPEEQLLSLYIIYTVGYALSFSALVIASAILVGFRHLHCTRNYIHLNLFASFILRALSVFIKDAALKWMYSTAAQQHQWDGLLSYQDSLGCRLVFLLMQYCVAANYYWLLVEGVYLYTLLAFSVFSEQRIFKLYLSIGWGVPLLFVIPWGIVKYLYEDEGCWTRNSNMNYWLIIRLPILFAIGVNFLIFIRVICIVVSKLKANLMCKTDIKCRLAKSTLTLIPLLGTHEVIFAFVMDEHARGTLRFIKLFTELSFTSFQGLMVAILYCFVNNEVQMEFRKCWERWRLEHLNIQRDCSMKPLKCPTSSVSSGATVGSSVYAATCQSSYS
Protocol: Dynamic PET/CT scans were performed on a Siemens Inveon PET-CT multimodality system using normal male BABL/c mice (n=3 per peptide). Post-PET biodistribution was performed to verify the imaging findings.
In addition, D-Ala^8 was also introduced to prevent the degradation by DPP-IV.
FIG. 9 are graphs that show a comparison of contrast in pancreatic, liver and kidney microPET scans. […] Quantitative analysis based on microPET/CT 0-60 min dynamic scans, animal model: Normal BABL/c mice at 6-8 wks.

GLP-1R = GLP-1R (Homo sapiens, UniProt P43220); experiment: cAMP accumulation in HEK293 cells stably expressing GLP-1R-GFP; assay type: cell-based; parameters: GFP; expressed in transfected cells; host or cells: HEK293
From the text: In all cases, reactions were stopped with 1.2 M trichloroacetic acid and cAMP was isolated by the two column chromatographic method.

GLP-1R, sequence (P43220 24-463): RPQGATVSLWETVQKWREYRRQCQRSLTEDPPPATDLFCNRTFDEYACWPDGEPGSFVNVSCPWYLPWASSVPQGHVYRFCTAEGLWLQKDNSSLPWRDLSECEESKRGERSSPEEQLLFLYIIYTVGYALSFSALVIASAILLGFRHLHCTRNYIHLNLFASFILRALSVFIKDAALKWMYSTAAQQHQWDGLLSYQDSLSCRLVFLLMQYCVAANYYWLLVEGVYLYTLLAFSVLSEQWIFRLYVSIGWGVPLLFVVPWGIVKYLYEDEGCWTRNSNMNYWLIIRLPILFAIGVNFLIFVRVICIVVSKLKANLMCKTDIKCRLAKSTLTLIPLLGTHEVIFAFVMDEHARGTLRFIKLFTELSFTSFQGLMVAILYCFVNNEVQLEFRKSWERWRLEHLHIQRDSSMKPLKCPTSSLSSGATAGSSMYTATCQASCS

## CC[C@H](C)[C@H](NC(=O)[C@H](Cc1ccccc1)NC(=O)[C@H](CCC(=O)O)NC(=O)[C@H](CCCCN)NC(=O)[C@H](C)NC(=O)[C@H](C)NC(=O)[C@H](CCC(N)=O)NC(=O)CNC(=O)[C@H](CCC(=O)O)NC(=O)[C@H](CC(C)C)NC(=O)[C@H](Cc1ccc(O)cc1)NC(=O)[C@H](CO)NC(=O)[C@H](CO)NC(=O)[C@@H](NC(=O)[C@H](CC(=O)O)NC(=O)[C@H](CO)NC(=O)[C@@H](NC(=O)[C@H](Cc1ccccc1)NC(=O)[C@@H](NC(=O)CNC(=O)[C@H](CCC(=O)O)NC(=O)[C@@H](C)NC(=O)[C@@H](N)Cc1c[nH]cn1)[C@@H](C)O)[C@@H](C)O)C(C)C)C(=O)N[C@@H](C)C(=O)N[C@@H](Cc1c[nH]c2ccccc12)C(=O)N[C@@H](CC(C)C)C(=O)N[C@H](C(=O)N[C@@H](CCCCN)C(=O)NCC(=O)N[C@@H](CCCNC(=N)N)C(=O)NCCCCCC(=O)N[C@@H](CSC1CC(=O)N(CCNC(=O)CN2CCN(CC(=O)O)CCN(CC(=O)O)CCN(CC(=O)O)CC2)C1=O)C(N)=O)C(C)C (stereo partly drawn) (64Cu complex, metal not drawn) [D-GLP-1, [D-Ala^8]GLP-1-Ahx-Cys]
In vivo; % ID/g blood
  tissue uptake at 20 min: 0.91 ± 0.39 %ID/g
  tissue uptake at 1 h: 0.41 ± 0.07 %ID/g
  tissue uptake at 4 h: 0.45 ± 0.02 %ID/g
  tissue uptake at 24 h: 0.14 ± 0.08 %ID/g
In vivo; % ID/g fat
  tissue uptake at 20 min: 0.44 ± 0.6 %ID/g
  tissue uptake at 1 h: 0.28 ± 0.4 %ID/g
  tissue uptake at 4 h: 0.96 ± 0.88 %ID/g
  tissue uptake at 24 h: 0.78 ± 0.14 %ID/g
In vivo; % ID/g heart
  tissue uptake at 20 min: 0.64 ± 0.16 %ID/g
  tissue uptake at 1 h: 0.46 ± 0.21 %ID/g
  tissue uptake at 4 h: 0.15 ± 0.09 %ID/g
  tissue uptake at 24 h: 0.04 ± 0.05 %ID/g
In vivo; % ID/g kidney
  tissue uptake at 20 min: 19.6 ± 0.91 %ID/g
  tissue uptake at 1 h: 28.2 ± 5.83 %ID/g
  tissue uptake at 4 h: 30.7 ± 9.53 %ID/g
  tissue uptake at 24 h: 46.1 ± 10.9 %ID/g
In vivo; % ID/g large int
  tissue uptake at 20 min: 0.45 ± 0.2 %ID/g
  tissue uptake at 1 h: 0.67 ± 0.7 %ID/g
  tissue uptake at 4 h: 0.77 ± 0.18 %ID/g
  tissue uptake at 24 h: 2.01 ± 0.02 %ID/g
In vivo; % ID/g liver
  tissue uptake at 20 min: 2.69 ± 1.16 %ID/g
  tissue uptake at 1 h: 1.17 ± 0.45 %ID/g
  tissue uptake at 4 h: 1.56 ± 0.14 %ID/g
  tissue uptake at 24 h: 2.26 ± 0.16 %ID/g
In vivo; % ID/g lung
  tissue uptake at 20 min: 4.03 ± 1.64 %ID/g
  tissue uptake at 1 h: 0.91 ± 0.12 %ID/g
  tissue uptake at 4 h: 0.77 ± 0.18 %ID/g
  tissue uptake at 24 h: 1.21 ± 0.3 %ID/g
In vivo; % ID/g muscle
  tissue uptake at 20 min: 0.3 ± 0.15 %ID/g
  tissue uptake at 1 h: 0.63 ± 0.05 %ID/g
  tissue uptake at 4 h: 0.11 ± 0.13 %ID/g
  tissue uptake at 24 h: 0.39 ± 0.29 %ID/g
In vivo; % ID/g pancreas
  tissue uptake at 20 min: 3.58 ± 0.56 %ID/g
  tissue uptake at 1 h: 2.19 ± 0.98 %ID/g
  tissue uptake at 4 h: 1.18 ± 0.12 %ID/g
  tissue uptake at 24 h: 0.99 ± 0.05 %ID/g
In vivo; % ID/g small int
  tissue uptake at 20 min: 1.07 ± 0.73 %ID/g
  tissue uptake at 1 h: 1.02 ± 0.75 %ID/g
  tissue uptake at 4 h: 0.5 ± 0.25 %ID/g
  tissue uptake at 24 h: 0.91 ± 0.31 %ID/g
In vivo; % ID/g spleen
  tissue uptake at 20 min: 0.22 ± 0.05 %ID/g
  tissue uptake at 1 h: 0.23 ± 0.05 %ID/g
  tissue uptake at 4 h: 0.26 ± 0.2 %ID/g
  tissue uptake at 24 h: 0.52 ± 0.18 %ID/g
In vivo; % ID/g stomach
  tissue uptake at 20 min: 1.02 ± 0.51 %ID/g
  tissue uptake at 1 h: 0.49 ± 0.31 %ID/g
  tissue uptake at 4 h: 0.23 ± 0.07 %ID/g
  tissue uptake at 24 h: 0.25 ± 0.17 %ID/g
GLP-1R in pancreas
  clearance from the pancreas: < 10 min

## CC[C@H](C)[C@H](NC(=O)[C@H](Cc1ccccc1)NC(=O)[C@H](CCC(=O)O)NC(=O)[C@H](CCCCN)NC(=O)[C@H](C)NC(=O)[C@H](C)NC(=O)[C@H](CCC(N)=O)NC(=O)CNC(=O)[C@H](CCC(=O)O)NC(=O)[C@@H]1CCCCNC(=O)CC[C@H](NC(=O)[C@H](CC(=O)O)NC(=O)[C@H](CO)NC(=O)[C@@H](NC(=O)[C@H](Cc2ccccc2)NC(=O)[C@@H](NC(=O)CNC(=O)[C@H](CCC(=O)O)NC(=O)[C@@H](C)NC(=O)[C@@H](N)Cc2c[nH]cn2)[C@@H](C)O)[C@@H](C)O)C(=O)N[C@@H](CO)C(=O)N[C@@H](CO)C(=O)N[C@@H](Cc2ccc(O)cc2)C(=O)N1)C(=O)N[C@H]1CCC(=O)NCCCC[C@@H](C(=O)NCC(=O)N[C@@H](CCCNC(=N)N)C(=O)NCCCCCC(=O)N[C@@H](CSC2CC(=O)N(CCNC(=O)CN3CCN(CC(=O)O)CCN(CC(=O)O)CCN(CC(=O)O)CC3)C2=O)C(N)=O)NC(=O)[C@H](C(C)C)NC(=O)[C@H](CC(C)C)NC(=O)[C@H](Cc2c[nH]c3ccccc23)NC1=O (stereo partly drawn) [EM2196, HXEGTFTSDESSYKEGQAAKEFIEWLVKG R, wherein X is D-Ala] (H-H[dA]EGTFTSDESSYKEGQAAKEFIEWLVKGR[Ahx]C(X1)-NH2; lactam 10-14, 24-28)
GLP-1R
  EC50: ~1 nM

From patent publication US8992886B2, “Cyclic peptide analogues for non-invasive imaging of pancreatic beta-cells” (Board of Regents, the University of Texas System, priority 2009, dated 2015)
